Reference: paper PMC5888981, “Scopoletin 8-hydroxylase: a novel enzyme involved in coumarin biosynthesis and iron-deficiency responses in Arabidopsis” (Journal of Experimental Botany, 2018)

Substrate: COc1cc2ccc(=O)oc2cc1O
Assay: purified protein
Type: biochemical, Arabidopsis thaliana
Details: Fe2+, 2-oxoglutarate and ascorbate, pH 8.0 (methods b28 say optimal pH 7.0), 31.5 °C, 10 min, 0.1 M potassium phosphate

B1: S8H (scopoletin 8-hydroxylase; At3g12900 oxidoreductase) (Arabidopsis thaliana) (protein)
chain: GINFEDQTTLFNFVVREGNGVKGMIDSGLSSVPRPFVQPLSERIPTQKALTCEATQPIDLSNLDGPQHKEVAKQIVEAAETLGFFQVVNHGVSVELLELLKSSAHEFFAQAPEEKSMYLKEVSPSKLVKYGTSFVPDKEKAIEWKDYVSMLYTNDSEALQHWPQPCREVALEFLNSSMEMVKNVVNILMENVGVTLEEEKMNGLMGTKMVNMNYYPTCPSPELTVGVGRHSDMGMLTVLLQDGIGGLYVKLDNGEWAEIPPVHGALVINIGDTLQILSNGKYKSAEHRVRTTNIGSRVSVPIFTAPNPSQKVGPLPEVVKRDGVARYKEFLFQDYMNNFFGQPHDGKKSLDFARAE
notes: S8H ORF in pET28a+ (BamHI/XhoI), 6xHis-tagged, no tag removal described; E. coli Rosetta 2; TALON purified
- Km: 11 ± 2 µM
- kcat: 1.73 ± 0.09 s^–1
